Reference: PMC3552336

Target: HA-p68 (wild type) (UniProt P17844)
Chain of UniProt P17844 (P17844 whole entry): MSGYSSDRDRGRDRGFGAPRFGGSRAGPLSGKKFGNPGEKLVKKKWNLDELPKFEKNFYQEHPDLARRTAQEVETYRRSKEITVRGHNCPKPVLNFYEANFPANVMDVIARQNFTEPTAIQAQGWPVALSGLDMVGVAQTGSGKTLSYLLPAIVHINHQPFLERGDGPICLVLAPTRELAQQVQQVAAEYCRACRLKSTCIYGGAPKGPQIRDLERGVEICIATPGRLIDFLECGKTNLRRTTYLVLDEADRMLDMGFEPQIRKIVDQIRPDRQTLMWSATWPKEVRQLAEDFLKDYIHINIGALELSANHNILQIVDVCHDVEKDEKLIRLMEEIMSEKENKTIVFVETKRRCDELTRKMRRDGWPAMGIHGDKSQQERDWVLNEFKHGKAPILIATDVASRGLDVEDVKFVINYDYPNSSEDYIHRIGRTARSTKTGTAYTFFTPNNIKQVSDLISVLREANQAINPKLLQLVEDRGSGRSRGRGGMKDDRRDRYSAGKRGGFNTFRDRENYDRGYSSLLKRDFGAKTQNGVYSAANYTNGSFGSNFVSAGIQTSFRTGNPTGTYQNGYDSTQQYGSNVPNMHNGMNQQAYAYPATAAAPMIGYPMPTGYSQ

microtubule gliding assay, p68/Ca^2+-CaM (ATP): % of gliding microtubules (n=50): 74.2%
microtubule gliding assay, p68/Ca^2+-CaM (ATP): maximum gliding speed: 0.52 µm/min
microtubule gliding assay, p68/Ca^2+-CaM (ATP): mean gliding speed: 0.16 µm/min
Substance: Rhodamine labeled microtubule (from UniProt P02550;P02554) (complex)
